Measurements taken from publication PMC6971430, “Manipulation of the dually thermoresponsive behavior of peptide‐based vesicles through modification of collagen‐like peptide domains” (Bioengineering & Translational Medicine, 2019).
Non-standard residues stand in square brackets, D forms with d. No end group written: not given here. *: point of attachment. Butanoyl(4-N3) = [N-]=[N+]=NCCCC(=O)*; Hyp = O=C(O)[C@@H]1C[C@@H](O)CN1; Pra = C#CC[C@H](N)C(=O)O

B1: (VPGFG)6-(GPO)3GFOGER(GPO)3GG (peptide)
chain: H-VPGFGVPGFGVPGFGVPGFGVPGFGVPGFG[Pra]GP[Hyp]GP[Hyp]GP[Hyp]GF[Hyp]GERGP[Hyp]GP[Hyp]GP[Hyp]GG
modifications: triazole (positions not given here); not fully specified (residue 31, bridges); also: no peptide bond between residues 31 and 32, the two parts are joined by azide-alkyne cycloaddition
notes: elastin-like peptide NH2-(VPGFG)6G', written out here; the last G stands for G' (propargylglycine); collagen-like peptide (GPO)3GFOGER(GPO)3GG as in m2; the printed O (hydroxyproline) is written as P; Two synthetic peptides joined through a triazole, written as one chain; Reaction details are in Supporting Information Section 1.2; also called F6-GFOGER; ELP-CLP conjugate; source: synthetic …
B2: N3-(GPO)3GFOGER(GPO)3GG (peptide)
peptide: {Butanoyl(4-N3)}-GP[Hyp]GP[Hyp]GP[Hyp]GF[Hyp]GERGP[Hyp]GP[Hyp]GP[Hyp]GG
notes: collagen-like peptide, printed in short form as N3-(GPO)3GFOGER(GPO)3GG and written out here; Forms a homotrimeric triple helix; details are in Supporting Information Section 1.1; also called CLP; source: synthetic peptide (Fmoc solid phase synthesis), purified by RP-HPLC

Columns and labels:
[1] = target: the molecule itself; assay: circular dichroism spectroscopy; ELP-CLP conjugates, wavelength scans at 0.1 mM and melting scans at 0.35 mM in HPLC grade water (pH 6.5 at 4°C), 0.2 cm cuvette; monomers to triple helix
[2] = target: the molecule itself; assay: circular dichroism spectroscopy; free CLP peptides, 0.35 mM in HPLC grade water (pH 6.5 at 4°C), 0.2 cm cuvette; wavelength scans at 4 and 80°C and melting scans; monomers to triple helix

Protein	stoichiometry N [1]	stoichiometry N [2]
B1	3	
B2		3
